The source of these data is patent US20220119490A1 (Genentech, published 2022).

Test in all cases: cell surface interaction assay: query ECD tetramerised with fluorescent streptavidin on transfected cells, immunofluorescence
The target in one experiment is T1, MDGA1 (human, UniProt Q8NFP4, biotinylated).
T1 construct: extracellular domain; also called MAM domain-containing glycosylphosphatidylinositol anchor protein 1; soluble query
T1 sequence (soluble query ectodomain, looked up): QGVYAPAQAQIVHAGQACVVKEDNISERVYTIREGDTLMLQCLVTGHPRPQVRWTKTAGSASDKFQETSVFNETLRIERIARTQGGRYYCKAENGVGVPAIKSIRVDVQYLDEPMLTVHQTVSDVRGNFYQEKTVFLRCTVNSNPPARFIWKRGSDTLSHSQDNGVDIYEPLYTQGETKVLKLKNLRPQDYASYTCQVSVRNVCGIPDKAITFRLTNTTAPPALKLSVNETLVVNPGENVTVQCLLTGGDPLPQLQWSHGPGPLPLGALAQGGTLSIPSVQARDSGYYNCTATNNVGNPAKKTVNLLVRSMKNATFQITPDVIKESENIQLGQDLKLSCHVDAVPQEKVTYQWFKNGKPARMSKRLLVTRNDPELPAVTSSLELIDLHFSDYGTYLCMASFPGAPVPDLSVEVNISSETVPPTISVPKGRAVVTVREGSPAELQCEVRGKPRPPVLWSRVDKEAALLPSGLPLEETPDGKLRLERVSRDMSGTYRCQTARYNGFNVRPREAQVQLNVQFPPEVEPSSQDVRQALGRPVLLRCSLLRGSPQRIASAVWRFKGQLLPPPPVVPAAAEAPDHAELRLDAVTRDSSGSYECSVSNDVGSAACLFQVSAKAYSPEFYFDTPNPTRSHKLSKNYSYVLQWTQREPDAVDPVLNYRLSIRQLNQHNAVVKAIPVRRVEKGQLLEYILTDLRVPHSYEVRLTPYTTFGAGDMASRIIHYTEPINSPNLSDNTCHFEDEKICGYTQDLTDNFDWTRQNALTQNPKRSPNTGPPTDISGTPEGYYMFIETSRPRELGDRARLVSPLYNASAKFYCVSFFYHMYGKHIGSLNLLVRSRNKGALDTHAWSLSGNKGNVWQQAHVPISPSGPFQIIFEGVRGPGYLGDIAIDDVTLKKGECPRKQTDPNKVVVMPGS

The next experiment has as its target T2, UNC5A (human, UniProt Q6ZN44).
T2 construct: expressed on cells; also called UNC5A expressed on cells
T2 sequence (cell-surface-expressed binding partner, looked up): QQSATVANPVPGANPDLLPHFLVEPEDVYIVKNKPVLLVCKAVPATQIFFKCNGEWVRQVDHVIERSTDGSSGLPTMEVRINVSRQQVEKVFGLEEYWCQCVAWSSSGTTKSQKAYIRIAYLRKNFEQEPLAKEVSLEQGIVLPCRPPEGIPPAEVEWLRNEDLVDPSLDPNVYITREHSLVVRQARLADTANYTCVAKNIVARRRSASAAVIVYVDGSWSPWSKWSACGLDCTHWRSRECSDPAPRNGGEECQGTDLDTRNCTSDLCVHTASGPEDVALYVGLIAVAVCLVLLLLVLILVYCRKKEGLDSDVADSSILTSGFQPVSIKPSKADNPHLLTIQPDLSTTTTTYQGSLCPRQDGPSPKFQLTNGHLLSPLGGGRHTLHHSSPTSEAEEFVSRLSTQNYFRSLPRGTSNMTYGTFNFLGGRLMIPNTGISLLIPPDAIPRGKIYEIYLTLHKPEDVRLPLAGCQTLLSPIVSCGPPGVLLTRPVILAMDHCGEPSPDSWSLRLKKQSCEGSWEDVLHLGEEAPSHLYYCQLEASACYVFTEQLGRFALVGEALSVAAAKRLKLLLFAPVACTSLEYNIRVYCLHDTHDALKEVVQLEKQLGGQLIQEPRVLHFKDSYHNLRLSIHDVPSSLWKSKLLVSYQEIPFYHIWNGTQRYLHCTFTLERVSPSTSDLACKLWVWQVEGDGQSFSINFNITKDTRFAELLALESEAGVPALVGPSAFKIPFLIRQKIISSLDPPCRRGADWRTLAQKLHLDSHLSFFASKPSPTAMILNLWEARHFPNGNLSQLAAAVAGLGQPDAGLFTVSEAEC

For another experiment, the target named is T3, UNC5D (human, UniProt Q6UXZ4).
T3 construct: expressed on cells; also called UNC5D expressed on cells
T3 sequence (cell-surface-expressed binding partner, looked up): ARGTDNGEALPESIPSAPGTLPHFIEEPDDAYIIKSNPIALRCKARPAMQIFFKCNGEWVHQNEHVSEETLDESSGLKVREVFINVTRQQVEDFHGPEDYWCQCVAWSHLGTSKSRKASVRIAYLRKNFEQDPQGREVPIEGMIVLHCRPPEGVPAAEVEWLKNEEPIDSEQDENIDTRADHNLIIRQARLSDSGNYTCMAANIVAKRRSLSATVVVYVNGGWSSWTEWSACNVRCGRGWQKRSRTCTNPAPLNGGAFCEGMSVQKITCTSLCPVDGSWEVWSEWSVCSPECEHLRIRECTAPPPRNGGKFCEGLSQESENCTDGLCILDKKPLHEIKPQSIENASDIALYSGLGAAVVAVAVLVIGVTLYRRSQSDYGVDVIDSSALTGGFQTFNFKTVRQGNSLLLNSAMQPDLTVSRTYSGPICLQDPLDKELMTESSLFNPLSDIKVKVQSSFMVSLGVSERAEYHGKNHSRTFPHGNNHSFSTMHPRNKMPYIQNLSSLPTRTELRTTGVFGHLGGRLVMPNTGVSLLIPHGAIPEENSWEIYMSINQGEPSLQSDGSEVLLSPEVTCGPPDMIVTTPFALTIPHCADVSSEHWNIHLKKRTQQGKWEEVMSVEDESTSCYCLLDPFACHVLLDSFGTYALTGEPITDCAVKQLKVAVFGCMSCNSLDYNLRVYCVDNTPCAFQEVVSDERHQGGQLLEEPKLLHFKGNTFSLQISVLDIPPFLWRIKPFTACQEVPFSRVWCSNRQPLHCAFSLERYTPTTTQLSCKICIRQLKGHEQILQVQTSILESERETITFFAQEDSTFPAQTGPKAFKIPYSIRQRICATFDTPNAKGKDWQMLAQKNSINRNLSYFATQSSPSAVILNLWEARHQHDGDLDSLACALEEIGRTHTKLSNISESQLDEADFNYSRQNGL

B1: NLGN3 (receptor, human, UniProt Q9NZ94 38-848, looked up)
cell-surface-expressed binding partner: QAPAPTVNTHFGKLRGARVPLPSEILGPVDQYLGVPYAAPPIGEKRFLPPEPPPSWSGIRNATHFPPVCPQNIHTAVPEVMLPVWFTANLDIVATYIQEPNEDCLYLNVYVPTEDVKRISKECARKPNKKICRKGGSGAKKQGEDLADNDGDEDEDIRDSGAKPVMVYIHGGSYMEGTGNMIDGSILASYGNVIVITLNYRVGVLGFLSTGDQAAKGNYGLLDQIQALRWVSENIAFFGGDPRRITVFGSGIGASCVSLLTLSHHSEGLFQRAIIQSGSALSSWAVNYQPVKYTSLLADKVGCNVLDTVDMVDCLRQKSAKELVEQDIQPARYHVAFGPVIDGDVIPDDPEILMEQGEFLNYDIMLGVNQGEGLKFVEGVVDPEDGVSGTDFDYSVSNFVDNLYGYPEGKDTLRETIKFMYTDWADRDNPETRRKTLVALFTDHQWVEPSVVTADLHARYGSPTYFYAFYHHCQSLMKPAWSDAAHGDEVPYVFGVPMVGPTDLFPCNFSKNDVMLSAVVMTYWTNFAKTGDPNKPVPQDTKFIHTKANRFEEVAWSKYNPRDQLYLHIGLKPRVRDHYRATKVAFWKHLVPHLYNLHDMFHYTSTTTKVPPPDTTHSSHITRRPNGKTWSTKRPAISPAYSNENAQGSWNGDQDAGPLLVENPRDYSTELSVTIAVGASLLFLNVLAFAALYYRKDKRRQEPLRQPSPQRGAGAPELGAAPEEELAALQLGPTHHECEAGPPHDTLRLTALPDYTLTLRRSPDDIPLMTPNTITMIPNSLVGLQTLHPYNTFAAGFNSTGLPHSHSTTRV
notes: expressed on cells; also called NLGN3 expressed on cells
As to B1, the binding result in the experiment with MDGA1 is “binds”.

B2: FLRT3 (receptor, human, UniProt Q9NZU0 29-528, looked up)
soluble query ectodomain: KSCPSVCRCDAGFIYCNDRFLTSIPTGIPEDATTLYLQNNQINNAGIPSDLKNLLKVERIYLYHNSLDEFPTNLPKYVKELHLQENNIRTITYDSLSKIPYLEELHLDDNSVSAVSIEEGAFRDSNYLRLLFLSRNHLSTIPWGLPRTIEELRLDDNRISTISSPSLQGLTSLKRLVLDGNLLNNHGLGDKVFFNLVNLTELSLVRNSLTAAPVNLPGTNLRKLYLQDNHINRVPPNAFSYLRQLYRLDMSNNNLSNLPQGIFDDLDNITQLILRNNPWYCGCKMKWVRDWLQSLPVKVNVRGLMCQAPEKVRGMAIKDLNAELFDCKDSGIVSTIQITTAIPNTVYPAQGQWPAPVTKQPDIKNPKLTKDHQTTGSPSRKTITITVKSVTSDTIHISWKLALPMTALRLSWLKLGHSPAFGSITETIVTGERSEYLVTALEPDSPYKVCMVPMETSNLYLFDETPVCIETETAPLRMYNPTTTLNREQEKEPYKNPNLP
modifications: biotinylated
notes: extracellular domain; also called soluble query
B2: the binding result with UNC5A and with UNC5D was “binds” throughout.
